Test results as given in patent US9567379 (UNIVERSITY OF CHICAGO, dated 2017).

Tests used:
[1] = molecular target: T1, human fibrinogen (human, UniProt P02671 20-644; P02675 31-491; P02679 27-437); assay: SPR (BIAcore 3000), human fibrinogen amine-coupled to CM5 chip, Coa injected, 1:1 model
T1 construct: Amine-coupled to a CM5 chip
T1 sequence 1: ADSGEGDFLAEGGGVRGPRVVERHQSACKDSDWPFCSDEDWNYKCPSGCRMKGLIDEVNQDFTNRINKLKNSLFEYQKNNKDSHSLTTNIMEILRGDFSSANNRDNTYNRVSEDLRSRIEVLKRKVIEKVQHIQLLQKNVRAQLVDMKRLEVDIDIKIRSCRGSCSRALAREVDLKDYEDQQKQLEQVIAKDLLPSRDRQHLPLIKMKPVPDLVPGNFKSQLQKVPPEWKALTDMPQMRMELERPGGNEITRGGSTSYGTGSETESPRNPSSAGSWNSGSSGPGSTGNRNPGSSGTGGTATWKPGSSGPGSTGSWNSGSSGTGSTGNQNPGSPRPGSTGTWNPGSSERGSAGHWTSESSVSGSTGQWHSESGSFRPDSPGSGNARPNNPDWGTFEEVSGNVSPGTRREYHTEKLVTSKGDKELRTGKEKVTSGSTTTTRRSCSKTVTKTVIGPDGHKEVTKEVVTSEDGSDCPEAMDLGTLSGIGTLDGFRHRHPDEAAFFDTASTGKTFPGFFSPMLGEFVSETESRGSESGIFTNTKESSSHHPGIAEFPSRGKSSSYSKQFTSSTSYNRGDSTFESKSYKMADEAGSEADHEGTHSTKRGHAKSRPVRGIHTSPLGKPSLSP
T1 sequence 2: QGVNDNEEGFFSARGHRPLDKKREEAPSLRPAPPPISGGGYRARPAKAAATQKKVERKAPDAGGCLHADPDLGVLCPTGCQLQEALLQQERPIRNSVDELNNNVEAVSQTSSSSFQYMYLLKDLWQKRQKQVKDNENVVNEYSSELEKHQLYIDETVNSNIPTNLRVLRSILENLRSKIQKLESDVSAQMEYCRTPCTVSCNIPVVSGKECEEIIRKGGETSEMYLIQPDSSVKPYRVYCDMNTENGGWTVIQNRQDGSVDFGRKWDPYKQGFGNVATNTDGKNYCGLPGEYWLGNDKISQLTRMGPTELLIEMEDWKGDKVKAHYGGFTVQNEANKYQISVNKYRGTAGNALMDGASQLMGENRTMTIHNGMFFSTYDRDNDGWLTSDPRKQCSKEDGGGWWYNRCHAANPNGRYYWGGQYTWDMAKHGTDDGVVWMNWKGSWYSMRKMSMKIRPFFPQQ
T1 sequence 3: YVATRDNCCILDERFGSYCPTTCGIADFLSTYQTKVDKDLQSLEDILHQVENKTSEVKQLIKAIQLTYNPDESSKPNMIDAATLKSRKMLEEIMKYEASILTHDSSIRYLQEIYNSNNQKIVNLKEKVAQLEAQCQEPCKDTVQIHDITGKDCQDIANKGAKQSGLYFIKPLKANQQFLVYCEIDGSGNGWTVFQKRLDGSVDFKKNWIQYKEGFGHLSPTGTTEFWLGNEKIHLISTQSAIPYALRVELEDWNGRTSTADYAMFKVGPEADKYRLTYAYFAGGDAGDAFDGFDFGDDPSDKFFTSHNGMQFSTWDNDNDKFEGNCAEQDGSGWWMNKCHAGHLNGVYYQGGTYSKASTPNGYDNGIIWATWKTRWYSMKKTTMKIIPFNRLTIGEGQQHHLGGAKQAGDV

[2] = molecular target: T2, human prothrombin (human, UniProt P00734 44-622); assay: SPR (BIAcore 3000), human prothrombin amine-coupled to CM5 chip, Coa injected at 0-75 nM, 1:1 model
T2 construct: Amine-coupled to a CM5 chip

[3] = molecular target: T1, human fibrinogen; assay: SPR (BIAcore 3000), human fibrinogen amine-coupled to CM5 chip, vWbp injected, 1:1 model; target fibrinogen
[4] = molecular target: T2, human prothrombin; assay: SPR (BIAcore 3000), human prothrombin amine-coupled to CM5 chip, vWbp injected, 1:1 model; target prothrombin

B1: coagulase (Coa), recombinant mature protein with the His6 tag removed by Factor Xa (other)
chain: IVTKDYSGKSQVNAGSKNGTLIDSRYLNSALYYLEDYIIYAIGLTNKYEYGDNIYKEAKDRLLEKVLREDQYLLERKKSQYEDYKQWYANYKKENPRTDLKMANFHKYNLEELSMKEYNELQDALKRALDDFHREVKDIKDKNSDLKTFNAAEEDKATKEVYDLVSEIDTLVVSYYGDKDYGEHAKELRAKLDLILGDTDNPHKITNERIKKEMIDDLNSIIDDFFMETKQNRPKSITKYNPTTHNYKTNSDNKPNFDKLVEETKKAVKEADDSWKKKTVKKYGETETKSPVVKEEKKVEEPQAPKVDNQQEVKTTAGKAEETTQPVAQPLVKIPQGTITGEIVKGPEYPTMENKTVQGEIVQGPDFLTMEQSGPSLSNNYTNPPLTNPILEGLEGSSSKLEIKPQGTESTLKGTQGESSDIEVKPQATETTEASQYGPRPQFNKTPKYVKYRDAGTGIREYNDGTFGYEARPRFNKPSETNAYNVTTHANGQVSYGARPTYKKPSETNAYNVTTHANGQVSYGARPTQNKPSKTNAYNVTTHGNGQVSYGARPTQNKPSKTNAYNVTTHANGQVSYGARPTYKKPSKTNAYNVTTHADGTATYGPRVTK
notes: also called functionally active Coa
Work on B1 yielded a Kd [1] of 93.1 nM and a Kd [2] of 28 nM.

B2: von Willebrand factor binding protein (vWbp), recombinant mature protein with the His6 tag removed by Factor Xa (other)
chain: VVSGEKNPYVSESLKLTNNKNKSRTVEEYKKSLDDLIWSFPNLDNERFDNPEYKEAMKKYQQRFMAEDEALKKFFSEEKKIKNGNTDNLDYLGLSHERYESVFNTLKKQSEEFLKEIEDIKKDNPELKDFNEEEQLKCDLELNKLENQILMLGKTFYQNYRDDVESLYSKLDLIMGYKDEERANKKAVNKRMLENKKEDLETIIDEFFSDIDKTRPNNIPVLEDEKQEEKNHKNMAQLKSDTEAAKSDESKRSKRSKRSLNTQNHKPASQEVSEQQKAEYDKRAEERKARFLDNQKIKKTPVVSLEYDFEHKQRIDNENDKKLVVSAPTKKPTSPTTYTETTTQVPMPTVERQTQQQIIYNAPKQLAGLNGESHDFTTTHQSPTTSNHTHNNVVEFEETSALPGRKSGSLVGISQIDSSHLTEREKRVIKREHVREAQKLVDNYKDTHSYKDRINAQQKVNTLSEGHQKRFNKQINKVYNGK
notes: also called functionally active vWbp
B2 showed a Kd [3] of 484 nM and a Kd [4] of 38.4 nM.
